Assay [1] relates to 3HA-PYL8. The assay can be described thus: MG132 treatment of oe3HA-PYL8 seedlings, anti-HA immunoblot. Format: in vivo, Arabidopsis. The following applies: 9-d-old oe3HA-PYL8 seedlings, 50 μM MG132, 2 h, vs mock. How it is done:
To determine whether PYL8 is a substrate of the UPS, we treated Arabidopsis seedlings expressing a 3×HA-tagged PYL8 fusion (oe3HA-PYL8) with proteasome inhibitor MG132. […] Moreover, upon proteasome inhibition several bands of high MW were detected, likely corresponding to ubiquitinated 3HA-PYL8 forms.
(§1) For protein extraction from seedlings, proteins were extracted in buffer containing 50 mM Tris-HCl pH 7.4, 150 mM NaCl, 10mM MgCl2, 1 mM PMSF, 0.1%NP-40 and 1× complete protease inhibitor (Roche). After centrifugation at 16,000 g at 4° C., the supernatants were collected. This step was repeated twice. For protein extraction from seeds, seeds were frozen in liquid N2 and then homogenized in buffer containing 7 M urea, 2 M thiourea, 4% 3-[(3-cholamidopropyl)dimethylammonio]-1-propanesulfonate (CHAPS; w/v), 18 mM Tris-HCl pH 7.5, 0,2% Triton X100, 1× complete protease inhibitor (Roche). After 10 min incubation at 4° C. with rotation. DTT was added to protein extracts (14 mM final concentration), prior to 20 min incubation at 4° C. Extracts were clarified by centrifugation as afore-mentioned. Protein concentration in final supernatants was determined using a Bio-Rad Protein Assay kit. […]
A general note: Immunoblotting shows a protein as a band on a membrane.

Assay [2] addresses T1, 3HA-PYL8 (Arabidopsis thaliana, UniProt Q9FGM1).
T1 construct: expressed in transfected cells; host or cells: stably transformed Arabidopsis thaliana (Col-0) plants, line oe3HA-PYL8: seedlings or imbibed seeds; seed lines in pyl8-1 background, some crossed with oeDDA1-GFP
T1 sequence (Q9FGM1 1-188): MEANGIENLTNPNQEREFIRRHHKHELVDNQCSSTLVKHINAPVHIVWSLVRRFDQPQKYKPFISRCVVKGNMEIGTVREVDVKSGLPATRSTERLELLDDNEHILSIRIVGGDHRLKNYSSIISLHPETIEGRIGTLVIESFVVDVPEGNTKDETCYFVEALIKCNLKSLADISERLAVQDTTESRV
The assay can be described thus: In vivo protein degradation assay (cycloheximide time course, immunoblot). The settings on record: 8-d-old seedlings treated with cycloheximide, 50 μM MG132; oe3HA-PYL8 and oe3HA-PYL8/oeDDA1-GFP. How it is done: as §1, with “kit. For in vivo co-immunoprecipitation assays, normalized seedling protein extracts were incubated with 5 μl anti-GFP antibody (Living colors Full length A.V. Polyclonal Antibody, Clontech) for 1 h at 4° C. with rotation. 10 μl of protein A-coupled beads (prewashed twice with 0.1 M Glycine pH 2.7) were added to the samples and incubated for an additional hour at 4° C. with rotation.” for “kit.”

The next assay deals with T2, DET1 (Arabidopsis, UniProt P48732 1-543).
T2 construct: Endogenous protein in the TAP; also called DEETIOLATED 1
T2 sequence (looked up): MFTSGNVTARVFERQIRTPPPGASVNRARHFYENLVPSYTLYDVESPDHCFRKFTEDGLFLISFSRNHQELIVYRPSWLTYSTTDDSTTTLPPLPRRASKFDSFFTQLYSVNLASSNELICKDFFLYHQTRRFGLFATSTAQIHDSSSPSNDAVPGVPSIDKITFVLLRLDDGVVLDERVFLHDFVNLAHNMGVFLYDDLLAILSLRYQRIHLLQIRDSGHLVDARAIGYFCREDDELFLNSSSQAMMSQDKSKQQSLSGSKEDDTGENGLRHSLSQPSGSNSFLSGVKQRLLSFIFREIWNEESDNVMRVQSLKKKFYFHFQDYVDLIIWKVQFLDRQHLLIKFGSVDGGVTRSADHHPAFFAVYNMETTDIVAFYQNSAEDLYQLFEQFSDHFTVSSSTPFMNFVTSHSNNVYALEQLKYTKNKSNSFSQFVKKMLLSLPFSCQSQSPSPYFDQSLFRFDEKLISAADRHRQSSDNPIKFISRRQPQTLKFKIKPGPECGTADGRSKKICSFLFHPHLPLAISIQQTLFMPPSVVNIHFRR
The assay can be described thus: yeast two-hybrid (FIG. 4B). The protocol: (§2) (A) Y187 yeast cells transformed with pGBKT7-DDA1 were used to screen a cDNA library prepared from Arabidopsis seedlings in the pGADT7 vector and transformed into AH109 cells. Positive clones included truncated versions of ABA receptors PYL4 and PYL9. Yeast clones were grown in selective media containing different concentrations of 3AT (ranging 0.5 to 5 […]). Empty pGADT7 vector was used as negative control. (B-C) DDA1 interaction with full length PYL8 (B), PYL4, PYL5, PYL6 or PYL9 (C) was assessed using yeast two hybrid experiments as in (A). Physical association between PYL8 and other components of the CDD complex (DDB1a, DDB1b, DET1 and COP10) was also tested (B).
(§3) The full length DDA1 cDNA was cloned into the pGBKT7 (Gal4 DNA binding domain, BD; Clontech). […] To confirm protein interactions, plasmids were co-transformed into Saccharomyces cerevisiae AH109 cells, following standard heat-shock protocols (Chini et al., 2007). Successfully transformed colonies were identified on yeast synthetic drop-out lacking Leu and Trp; these colonies were resuspended in water and transferred to selective media lacking Ade, His, Leu and Trp. Plates without His were supplemented with different concentrations of 3-amino 1,2,4-triazole (3AT; ranging 0.5-10 mM). Yeast cells were incubated at 30° C. during 6 days. Empty vectors were co-transformed as negative controls. To test the DDA1 interaction with specific DDB1a domains, DDB1a truncated versions were generated and cloned into the pGADT7 vector as follows: BPA (aa 16-350), BPB (aa 387-704), BPA+BPB (aa 16-704), BPC (aa 704-1002) and BPB+BPC (aa 350-1002). Full length DDB1a was used as a positive control.

For a further assay, the target named is T3, DDB1a (Arabidopsis, UniProt Q9M0V3 1-1088).
T3 construct: Endogenous protein in the TAP from Arabidopsis cell cultures; also called DDB1 proteins
T3 sequence (looked up): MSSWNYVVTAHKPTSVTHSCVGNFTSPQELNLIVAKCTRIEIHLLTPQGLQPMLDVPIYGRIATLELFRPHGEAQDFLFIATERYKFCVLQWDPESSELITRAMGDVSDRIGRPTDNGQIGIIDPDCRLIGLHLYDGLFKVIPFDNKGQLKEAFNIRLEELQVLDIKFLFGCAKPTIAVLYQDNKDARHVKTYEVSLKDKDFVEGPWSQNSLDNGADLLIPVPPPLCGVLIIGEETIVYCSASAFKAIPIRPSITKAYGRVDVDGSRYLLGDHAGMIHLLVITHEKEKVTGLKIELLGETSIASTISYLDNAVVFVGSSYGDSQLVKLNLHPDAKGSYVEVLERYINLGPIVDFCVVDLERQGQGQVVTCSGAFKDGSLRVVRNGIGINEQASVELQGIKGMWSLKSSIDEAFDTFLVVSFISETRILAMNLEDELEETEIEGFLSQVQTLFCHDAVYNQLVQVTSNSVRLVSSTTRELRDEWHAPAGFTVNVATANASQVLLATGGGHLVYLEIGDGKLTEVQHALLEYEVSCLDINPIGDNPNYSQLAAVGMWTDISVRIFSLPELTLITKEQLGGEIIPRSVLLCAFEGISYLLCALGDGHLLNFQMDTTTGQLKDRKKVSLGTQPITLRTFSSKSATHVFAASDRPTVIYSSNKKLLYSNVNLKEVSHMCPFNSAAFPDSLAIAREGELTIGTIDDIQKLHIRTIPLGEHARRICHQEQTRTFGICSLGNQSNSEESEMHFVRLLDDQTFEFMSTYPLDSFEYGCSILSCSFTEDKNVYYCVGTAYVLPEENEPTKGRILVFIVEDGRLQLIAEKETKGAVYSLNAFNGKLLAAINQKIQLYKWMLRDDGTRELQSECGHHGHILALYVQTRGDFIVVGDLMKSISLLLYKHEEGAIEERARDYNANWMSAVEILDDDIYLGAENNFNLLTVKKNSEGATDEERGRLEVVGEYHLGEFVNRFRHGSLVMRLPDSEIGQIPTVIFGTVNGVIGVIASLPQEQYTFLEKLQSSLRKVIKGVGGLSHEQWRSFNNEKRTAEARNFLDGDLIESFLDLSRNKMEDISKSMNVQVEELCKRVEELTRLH
The assay can be described thus: yeast two-hybrid (FIG. 4B). How it is done: as §2, §3

Another assay deals with T4, DDB1b (Arabidopsis, UniProt O49552 1-1088).
T4 construct: Endogenous protein in the TAP; also called DDB1 proteins
T4 sequence (looked up): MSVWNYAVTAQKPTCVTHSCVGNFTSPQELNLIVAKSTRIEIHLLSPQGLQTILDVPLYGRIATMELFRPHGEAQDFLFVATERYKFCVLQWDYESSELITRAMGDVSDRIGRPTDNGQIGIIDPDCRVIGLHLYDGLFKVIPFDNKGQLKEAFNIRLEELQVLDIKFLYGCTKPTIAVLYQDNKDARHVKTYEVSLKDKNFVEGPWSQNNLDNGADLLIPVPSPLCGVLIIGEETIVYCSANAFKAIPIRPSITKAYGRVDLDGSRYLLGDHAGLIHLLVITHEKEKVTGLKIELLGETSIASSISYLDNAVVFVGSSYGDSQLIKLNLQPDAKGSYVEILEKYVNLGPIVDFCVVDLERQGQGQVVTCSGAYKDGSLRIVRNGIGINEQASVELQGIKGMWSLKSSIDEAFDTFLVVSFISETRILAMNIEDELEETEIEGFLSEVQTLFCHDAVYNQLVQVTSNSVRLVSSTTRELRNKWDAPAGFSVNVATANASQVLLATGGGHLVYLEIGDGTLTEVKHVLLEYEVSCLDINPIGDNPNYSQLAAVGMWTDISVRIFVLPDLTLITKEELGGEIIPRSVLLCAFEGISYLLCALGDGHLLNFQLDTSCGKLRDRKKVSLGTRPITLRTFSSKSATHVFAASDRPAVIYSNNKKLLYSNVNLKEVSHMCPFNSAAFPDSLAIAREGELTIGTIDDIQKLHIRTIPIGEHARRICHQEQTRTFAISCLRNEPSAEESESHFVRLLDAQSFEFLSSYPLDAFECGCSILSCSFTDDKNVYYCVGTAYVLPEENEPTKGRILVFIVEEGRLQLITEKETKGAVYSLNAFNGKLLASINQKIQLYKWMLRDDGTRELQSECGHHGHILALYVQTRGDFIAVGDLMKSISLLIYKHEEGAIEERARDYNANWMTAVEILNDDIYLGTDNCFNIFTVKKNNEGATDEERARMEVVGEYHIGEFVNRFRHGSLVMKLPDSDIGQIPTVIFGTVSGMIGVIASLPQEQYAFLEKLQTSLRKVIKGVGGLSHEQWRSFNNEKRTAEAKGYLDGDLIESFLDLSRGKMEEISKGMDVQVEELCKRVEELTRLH
The assay can be described thus: yeast two-hybrid (FIG. 4B). How it is done: as §2, §3

Entries after “also recorded” stand apart in the source; their conditions may differ. Peptide text beside a SMILES is read from it. * marks the point of attachment. Cbz = O=C(OCc1ccccc1)*

On to `CC(C)C[C@@H](C=O)NC(=O)[C@H](CC(C)C)NC(=O)[C@H](CC(C)C)NC(=O)OCc1ccccc1` [MG132] (Cbz-Leu-Leu-Leu-aldehyde), for which the 3HA-PYL8 protein accumulation entry in the assay with 3HA-PYL8 [1] was “increased 3HA-PYL8 protein accumulation; also recorded: stabilizes 3HA-PYL8”. At 3HA-PYL8 [2], the 3HA-PYL8 destabilization/accumulation result is listed as “attenuated 3HA-PYL8 destabilization; also recorded: increased accumulation of 3HA-PYL8”.

B1: full length PYL8 (receptor, Arabidopsis, UniProt Q9FGM1 1-188, looked up)
chain: T1 sequence (Q9FGM1 1-188)
notes: Gal4-domain fusion in the yeast two-hybrid assays; also called ABA receptor PYL8
On to B1, for which the binding result in the assay with DET1, with DDB1a and in the assay with DDB1b was “no binding” in each case.

The values are drawn from patent publication US20160102316A1, “STRESS TOLERANT PLANTS” (CONSEJO SUPERIOR DE INVESTIGACIONES CIENTIFICAS(CSIC), priority 2013, published 2016).
